Assay: soluble on expression in E. coli; label from the status in PepcDB or PDB records

Soluble on expression in E. coli, not soluble:
MGSDKIHHHHHHMRKLLNTLYVTSPNTYLSLDGENIVILKDDVEALRVPLHNLESIIAFGYTGASPALMGACAKRNISLSFMKSNGKFLGRVVGEVRGNVTLRKAQYRLSDDEATSHRIAKSFILGKVYNSRWVVERATRDHGARLDVEKLKGVCQTLANALRLVENSKDLDQLRGVEGEAAAQYFRVLDDLILQQKEDFYFKCRNKRPPLDNVNAMLSFIYTLLAHDAAAALETVGLDPYVGFLHRDRPGRISLALDLMEELRAVFADRFVLSLINRREVNPSGFTRMENGAVVMDDDTRRDILKAWQSRKQEEIKHPFLQEKMEWGLVPYAQAMLLARFIRGDLDGYPAFMWK
MGSDKIHHHHHHMRKRRVYWTLFITAFAWLASCSDDDINGSSGFNPNQPIEITEFYPDSGGIATPMIIEGRNFGTDTTGMKVYFEDVDGIRHPAGLVSSNGSRIYAFVPKGLTFKREMNILVERRTPDGQEYIGKAPDQFLYKTQTSVSTVAGLASPDNNINTVGGDLATCTFSSPFYLCIDGEDNIFVVDRKGDSGKDKQPNTTCRNEKGEGVNGNISMISIASNSSIVLKYGTAYINAPAYSDEKDAEAVYIPDDAGMKYYDMQKLLNYVPRYRTVLKSEELSTVDENNWKHCFVINKLDHMIYTVMWKGQLVRINPKNRTAEILLKKISNVATGDGGKAGSDSYIAFSPIKGEENVLYVSLADFHQIWRVDVSKITPEDKDTYNGESYAGKAIYEGVMNGKGWEDGLLKNAKFRHPRQICFTDDGKMYIADSGNSCIRVIDTTMPKERAAVTTPIGLPGAEGYKDGGPEIAKFHFPCGVAVNSDGTIVYVADTQNKVIRKLSIE
MGSDKIHHHHHHMRLGFYNIQGGTGKTTIAANIGYYLSDKTKTVYVDCDIYAGCGALLFGFEDSPHTLNSYLSGASALTDIIHQFDDLSVIVADSTPNSFNTEINQKRMLELIRVLNDNYDIVLLDLPPNITEGNLLFSSLNLEEKVVNKMIVVAEDSIPGIANTMKTKELLYAIDIDCIGVIVNKFKDTVDFDEALDDIIAILPYDKKVENQWMENVPAVQMKSKFSKELSYLAEDLAEVYIKKDLAAVRALKVAKELKDMTSKRQDVEEDEF
MGSDKIHHHHHHMRLPPIDLSRENTFGEISYESGGQYGPIRGDYLAFIIVHLGTLKIEADETVLQLEAGHCALSLTRDSYLTTIAPETLTHISWCDGRPLNAAWLYKERHKYAPFINASTQVQTLMQLGVDLGIGDRDGRGGLREALTNTLLNAYIYEAEVVAEERPIPQTILQARRFLDENFAADVSIERVAQQVRVSPQYLVSAFKKHLGMTPARYLWRCRLDYGAHLLQRSGLSVSEIAYQVGYKNPYHFSRQIKLAFDCSPTELREKMLNG
MGSDKIHHHHHHMRLRHIEIFHAIYTTGSITNAAKILHVSQPSVSKVLSHAEMQLGFDLFERVKGRLTPTDEAEMLFDEVDKIYQQMRSIKNTAENIKKSEYGQINIAGSPALGFDVIPSAIAKYHHKHHQVNFNVQTVHNDAVMQTLLEHKCDLAILFAPNVMPGVTSIELAQSELVIVYPKVSFPDCPKELTLNQLKEFEYIDIGDSGPLADLLWTRMMKDNISLEALIKVQTYFIAARLVAQGVGICVVDRFTAEGNLSDNTAIASFNPPLTFPVKALYLENKSLSKVSQEFLSYLTTEFSDDSK
MGSDKIHHHHHHMRNELPPENAYRILESGPIVLVSTRGADGRANLMTMGFHMMMQHEPPLVGAIIGPWDYSHQALSETGECVLAVPTVDLAETVVDIGNCSGDALDKFGHFGLTPVPAQTVDAPLVRQCWANLECRVVDDGWARRYNLWVLEVQRIWIDTARKETRLIHHQGDGRFSVDGDTLDLGERMTKWRHLMG
MGSDKIHHHHHHMRNITVPSNYFHTRERLGALGGIVQHHTALYRSVAVYEPTVVIVRRGCKKLRWAGRELRIAAGEAVGLAGGQTLDVINIPDSDGLYQAQWIAFEQETVERFAAQYGTAQAVCDAVKLPHPGRMGAAFDYAAAVLADEEVPHNAAEAALCGVLAWLQHDGIGFAVYGGVNLMRQIRKLITADMAADWSSAMLAQRLNCSEAALRRRLARQDTNFRTLLTDVRMMRALTLLQVTQWSVAQIAGAVGYDCPSRFSARFKELFGCVPSVVRSEAEPAAYRRTGQVSVGVRP
